Measurements as given in US20190017096A1.

Target: Rab6a (Ras-related protein Rab-6A) (Homo sapiens (Human)) (UniProt P20340)
Experiment: cell-based or functional assay

Chain of UniProt P20340 (P20340 whole entry): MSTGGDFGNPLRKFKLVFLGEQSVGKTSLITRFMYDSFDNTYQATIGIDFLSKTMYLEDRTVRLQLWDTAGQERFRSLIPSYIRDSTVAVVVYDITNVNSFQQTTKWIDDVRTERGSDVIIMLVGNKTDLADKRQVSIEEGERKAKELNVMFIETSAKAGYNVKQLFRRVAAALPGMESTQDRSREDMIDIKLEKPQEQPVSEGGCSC

| band intensity of biotinylated Rab6a (FIG. 3) compared to biotinylated Rab27a (FIG. 2), positive controls spiked with fish REP1 | biotinylated substrate with Rab6a compared to Rab27a (in vitro prenylation, WB; untransduced 293 lysate, endogenous REP1, FIG. 9) | strength of the WB signal for biotinylated Rab6a (FIG. 3) compared to biotinylated Rab27a (FIG. 2), AAV-REP1 transduced cells | Substance |
| --- | --- | --- | --- |
| 100 fold | – | – | fish REP1 |
| – | 2.5 fold | 10 fold | human Rab escort protein 1 (REP1) (from UniProt P24386 1-653) |
